Measurements: patent US20220380433A1

Legend:
[1] = molecular target: H63 CAR as expressed from H63 CAR-2A-TMEM59, on H63 CAR-2A-TMEM59-T lymphocytes; experiment: flow cytometry; biotin-protein L and PE-streptavidin on H63 CAR-2A-TMEM59-T lymphocytes
[2] = molecular target: H63 CAR (CD8 signal peptide-H63-human CD8 hinge region-human CD8 transmembrane region-human 4-1BB costimulatory domain-CD3zeta signaling domain), on H63 CAR-T lymphocytes; experiment: flow cytometry; biotin-protein L and PE-streptavidin on H63 CAR-T lymphocytes
Sequence of H63 CAR (CD8 signal peptide-H63-human CD8 hinge region-human CD8 transmembrane region-human 4-1BB costimulatory domain-CD3zeta signaling domain), on H63 CAR-T lymphocytes (chain, as listed by the source): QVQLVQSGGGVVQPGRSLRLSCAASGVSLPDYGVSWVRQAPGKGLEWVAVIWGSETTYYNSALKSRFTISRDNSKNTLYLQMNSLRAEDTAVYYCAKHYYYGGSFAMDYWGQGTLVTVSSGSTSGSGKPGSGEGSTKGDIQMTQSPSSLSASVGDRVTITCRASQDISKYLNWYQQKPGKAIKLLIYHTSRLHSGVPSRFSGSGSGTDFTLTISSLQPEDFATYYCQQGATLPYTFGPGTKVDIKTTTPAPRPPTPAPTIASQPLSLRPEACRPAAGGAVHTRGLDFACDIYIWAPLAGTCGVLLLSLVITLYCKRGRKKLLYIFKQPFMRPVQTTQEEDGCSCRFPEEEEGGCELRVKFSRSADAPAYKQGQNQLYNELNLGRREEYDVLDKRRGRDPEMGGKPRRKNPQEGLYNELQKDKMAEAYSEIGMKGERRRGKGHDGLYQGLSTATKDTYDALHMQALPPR

Sequence of H63 CAR as expressed from H63 CAR-2A-TMEM59, on H63 CAR-2A-TMEM59-T lymphocytes (chain, as listed by the source): as above

Which results are given for “biotin-protein L (ACROBIOSYSTEMS, RPL-P814R)”?
CAR positive cells % (protein L-positive) [1]: 83.2%; CAR positive cells % (protein L-positive) [2]: 82.7%
